Data published in PMC4552821 (2015).
Where two headings read alike, the source gives them in different places.

Experiments:
[1] = biological target: T1, kerateine (reduced hair keratin extract) (Homo sapiens, UniProt Q15323); experiment: SPR
[2] = biological target: T1, kerateine (reduced hair keratin extract); experiment: SPR; remark: listed apart in the source

B1: BMP-2 (protein)
chain: QAKHKQRKRLKSSCKRHPLYVDFSDVGWNDWIVAPPGYHAFYCHGECPFPLADHLNSTNHAIVQTLVNSVNSKIPKACCVPTELSAISMLYLDENEKVVLKNYQDMVVEGCGCR
[1]
  Kd: 32 µM
[2]
  Kd: 0.11 µM
